# T1: Streptococcus pyogenes type II-A Cas1 with a C-terminal (His)6 tag (Streptococcus pyogenes, UniProt Q99ZW1 1-289)
# T1 sequence (looked up): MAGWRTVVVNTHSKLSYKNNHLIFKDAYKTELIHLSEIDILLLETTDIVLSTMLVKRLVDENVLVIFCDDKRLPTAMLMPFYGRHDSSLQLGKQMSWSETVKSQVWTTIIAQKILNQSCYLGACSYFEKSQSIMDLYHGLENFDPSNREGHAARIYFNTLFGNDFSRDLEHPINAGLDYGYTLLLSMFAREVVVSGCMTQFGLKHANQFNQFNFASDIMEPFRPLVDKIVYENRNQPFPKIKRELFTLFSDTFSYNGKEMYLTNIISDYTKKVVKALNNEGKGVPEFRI
# B1: Streptococcus pyogenes type II-A Csn2 (natural protein, UniProt Q99ZV9 1-220, looked up)
# chain: MNLNFSLLDEPIPLRGGTILVLEDVCVFSKIVQYCYQYEEDSELKFFDHKMKTIKESEIMLVTDILGFDVNSSTILKLIHADLESQFNEKPEVKSMIDKLVATITELIVFECLENELDLEYDEITILELIKSLGVKVETQSDTIFEKCLEILQIFKYLTKKKLLIFVNSGAFLTKDEVASLQEYISLTNLTVLFLEPRELYDFPQYILDEDYFLITKNMV
# B2: N-terminal (His)6-MBP-tagged full-length Streptococcus pyogenes type II-A Cas2 (natural protein, UniProt Q99ZW0 1-113, looked up)
# chain: MSYRYMRMILMFDMPTDTAEERKAYRKFRKFLLSEGFIMHQFSIYSKLLLNNTANNAMIGRLREHNPNKGNITLLTVTEKQFARMIYLHGERNNCIANSDERLVFLGEAFDES
# B3: Cas1-(His)6-MBP-Cas2 complex (complex, Streptococcus pyogenes)
# chain 1: T1 sequence (looked up)
# chain 2: B2 chain
# What was measured:
# [1] = target: B3; test: ITC
# [2] = target: Streptococcus pyogenes type II-A Cas9 with a C-terminal (His)6 tag (Streptococcus pyogenes, UniProt Q99ZW2 1-1368); test: SPR
# [3] = target: T1, Streptococcus pyogenes type II-A Cas1 …; test: ITC
# [4] = target: B1; test: ITC
# Sequence of Streptococcus pyogenes type II-A Cas9 with a C-terminal (His)6 tag (Q99ZW2 whole entry): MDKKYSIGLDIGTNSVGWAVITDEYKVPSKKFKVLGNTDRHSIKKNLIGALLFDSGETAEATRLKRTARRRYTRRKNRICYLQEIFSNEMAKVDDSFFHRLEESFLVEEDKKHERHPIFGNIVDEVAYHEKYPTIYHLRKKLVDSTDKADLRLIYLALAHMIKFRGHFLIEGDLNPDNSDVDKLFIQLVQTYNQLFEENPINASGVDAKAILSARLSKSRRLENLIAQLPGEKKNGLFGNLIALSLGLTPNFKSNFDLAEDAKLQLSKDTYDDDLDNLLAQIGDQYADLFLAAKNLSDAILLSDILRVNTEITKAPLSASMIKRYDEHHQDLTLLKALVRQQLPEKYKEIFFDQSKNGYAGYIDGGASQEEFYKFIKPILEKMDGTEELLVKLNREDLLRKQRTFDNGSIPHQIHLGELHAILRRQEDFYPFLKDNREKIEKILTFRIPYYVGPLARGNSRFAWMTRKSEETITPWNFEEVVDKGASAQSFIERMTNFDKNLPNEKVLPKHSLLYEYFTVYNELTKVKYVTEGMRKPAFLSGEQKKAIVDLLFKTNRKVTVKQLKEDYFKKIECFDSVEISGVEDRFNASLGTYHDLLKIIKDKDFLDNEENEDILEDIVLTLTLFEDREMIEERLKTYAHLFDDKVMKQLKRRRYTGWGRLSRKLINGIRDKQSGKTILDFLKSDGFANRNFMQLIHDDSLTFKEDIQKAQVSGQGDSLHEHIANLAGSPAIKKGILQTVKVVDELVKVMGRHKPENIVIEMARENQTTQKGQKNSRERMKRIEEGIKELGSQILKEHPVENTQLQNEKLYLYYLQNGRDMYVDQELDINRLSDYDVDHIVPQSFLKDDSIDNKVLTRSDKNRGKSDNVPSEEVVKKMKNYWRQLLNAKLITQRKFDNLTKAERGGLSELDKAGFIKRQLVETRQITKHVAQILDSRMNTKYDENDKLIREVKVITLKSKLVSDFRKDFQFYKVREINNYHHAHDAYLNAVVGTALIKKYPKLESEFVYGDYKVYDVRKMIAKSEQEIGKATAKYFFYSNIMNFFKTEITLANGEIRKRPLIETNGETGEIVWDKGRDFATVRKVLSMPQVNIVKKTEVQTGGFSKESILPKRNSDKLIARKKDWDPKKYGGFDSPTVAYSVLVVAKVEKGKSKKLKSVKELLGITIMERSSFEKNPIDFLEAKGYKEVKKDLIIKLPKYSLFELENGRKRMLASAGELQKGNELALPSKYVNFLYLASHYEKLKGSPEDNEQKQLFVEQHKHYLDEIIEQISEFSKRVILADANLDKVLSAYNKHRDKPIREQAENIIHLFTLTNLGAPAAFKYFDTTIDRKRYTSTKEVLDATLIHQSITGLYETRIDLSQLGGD
binder,measurement,setting,value
B1,Kd,[1],520 nM
same,Kd,[2],110 nM
B2,Kd,[3],240 nM
same,stoichiometry N,[3],0.44 (His)6-MBP-Cas2 per Cas1
B3,stoichiometry N,[4],2.1 Cas1–(His)6-MBP-Cas2 complex per Csn2 tetramer
